Molecular target: T1, rat hnRNP M4 expressed in P388D1 mouse macrophage cells by transient transfection of hnRNP M4/pBK-CMV (rat, UniProt Q62826 2-690)
T1 construct: also called pBK-CMV/hnRNP M4
T1 sequence: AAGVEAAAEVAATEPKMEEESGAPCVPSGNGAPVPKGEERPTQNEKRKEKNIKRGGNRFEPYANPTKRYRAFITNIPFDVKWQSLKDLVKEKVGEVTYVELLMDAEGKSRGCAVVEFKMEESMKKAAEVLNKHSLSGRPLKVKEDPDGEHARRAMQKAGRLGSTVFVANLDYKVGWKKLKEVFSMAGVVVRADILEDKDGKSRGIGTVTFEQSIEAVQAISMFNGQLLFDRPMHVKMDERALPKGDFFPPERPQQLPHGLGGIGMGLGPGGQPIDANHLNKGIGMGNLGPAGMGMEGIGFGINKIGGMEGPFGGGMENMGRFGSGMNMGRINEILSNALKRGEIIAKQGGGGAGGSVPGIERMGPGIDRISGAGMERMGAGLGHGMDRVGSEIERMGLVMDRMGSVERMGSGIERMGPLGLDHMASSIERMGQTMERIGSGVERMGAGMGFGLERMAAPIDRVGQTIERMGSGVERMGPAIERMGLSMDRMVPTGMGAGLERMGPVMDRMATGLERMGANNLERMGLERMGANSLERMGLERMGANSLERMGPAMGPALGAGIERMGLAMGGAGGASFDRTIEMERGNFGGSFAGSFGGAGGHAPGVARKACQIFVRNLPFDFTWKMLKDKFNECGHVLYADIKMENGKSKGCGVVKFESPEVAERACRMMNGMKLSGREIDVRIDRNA
Assay: 125I labeled CEA binding/uptake by P388D1 cells 48 h after transient transfection, compared with matching vector
From the text: To begin to elucidate the mechanism underlying the intracellular signaling associated with KC activation and CEA binding, the hnRNP M4 cDNA in the pBK-CMV expression vector was introduced into CEA non-responsive macrophage cell lines. The hnRNP M4 transcription in this system was driven by the CMV promoter. […] An approximately 5 times increase in CEA uptake was observed on transfecting […] of hnRNP M4/pBK-CMV plasmid. This fact implies that hnRNP M4 cDNA can initiate CEA binding in P388D1 […] macrophage cell line and can act as a receptor for CEA. […] At present, the reasons for lack of response by IC21 cells are not known.
Transient transfection of hnRNP M4 plasmid was carried out in P388D1 mouse lymphoid macrophage, IC21 mouse peritoneal and CRL2192 rat alveolar macrophage cell lines. As a positive control were used rat KC. The P388D1 cells were propagated in DMEM medium supplemented with 10% horse serum. The CRL 2192 cells were grown in F-12K medium (Kaighn's modification) supplemented with 15% FBS. The IC21 cells were grown in RPM1 1640 ATCC modified medium supplemented with 10% FBS. All cells were maintained at 37° C. in 5% CO₂ atmosphere. All tissue culture products were obtained from Life Technologies, USA. Cells for transfection were plated at 2-2.5.10⁵ cells per well in six well tissue culture clusters (Nunc products, Germany). […]

B1: carcinoembryonic antigen (CEA) (ligand, UniProt P06731 35-685, looked up)
chain: KLTIESTPFNVAEGKEVLLLVHNLPQHLFGYSWYKGERVDGNRQIIGYVIGTQQATPGPAYSGREIIYPNASLLIQNIIQNDTGFYTLHVIKSDLVNEEATGQFRVYPELPKPSISSNNSKPVEDKDAVAFTCEPETQDATYLWWVNNQSLPVSPRLQLSNGNRTLTLFNVTRNDTASYKCETQNPVSARRSDSVILNVLYGPDAPTISPLNTSYRSGENLNLSCHAASNPPAQYSWFVNGTFQQSTQELFIPNITVNNSGSYTCQAHNSDTGLNRTTVTTITVYAEPPKPFITSNNSNPVEDEDAVALTCEPEIQNTTYLWWVNNQSLPVSPRLQLSNDNRTLTLLSVTRNDVGPYECGIQNELSVDHSDPVILNVLYGPDDPTISPSYTYYRPGVNLSLSCHAASNPPAQYSWLIDGNIQQHTQELFISNITEKNSGLYTCQANNSASGHSRTTVKTITVSAELPKPSISSNNSKPVEDKDAVAFTCEPEAQNTTYLWWVNGQSLPVSPRLQLSNGNRTLTLFNVTRNDARAYVCGIQNSVSANRSDPVTLDVLYGPDTPIISPPDSSYLSGANLNLSCHSASNPSPQYSWRINGIPQQHTQVLFIAKITPNNNGTYACFVSNLATGRNNSIVKSITVSASGTSPGLSA
modifications: 125I label in the phage-lift and cell binding assays; unlabeled soluble CEA in the blot overlay
notes: also called soluble CEA; 125I labeled CEA
  fold increase in CEA uptake (against vector-transfected cells): ~5 times

— patent publication US20050058651A1 (published 2005)
